Data: patent US7402303 (LABORATOIRES SERONO, dated 2008)

T1: recombinant CCR1 (UniProt P32246 1-355, limits assumed)
T1 construct: whole, on cells; The assay used membranes of CHO transfectants, not whole cells
T1 sequence (looked up): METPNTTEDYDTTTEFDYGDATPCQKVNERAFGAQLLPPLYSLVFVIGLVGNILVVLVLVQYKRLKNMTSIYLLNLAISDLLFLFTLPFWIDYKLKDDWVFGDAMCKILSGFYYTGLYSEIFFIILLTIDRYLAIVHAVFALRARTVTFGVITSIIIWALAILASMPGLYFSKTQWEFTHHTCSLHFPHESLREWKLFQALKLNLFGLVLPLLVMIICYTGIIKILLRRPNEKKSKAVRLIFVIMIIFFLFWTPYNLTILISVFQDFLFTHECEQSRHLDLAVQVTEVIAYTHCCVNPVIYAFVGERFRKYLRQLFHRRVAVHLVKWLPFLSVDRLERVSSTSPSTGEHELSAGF


Biological target: T1, recombinant CCR1
Experiment: SPA equilibrium competition with [125I]-MIP-1α on CHO-CCR1 membranes
Protocol: Competitors were prepared by serial dilutions of the unlabelled chemokines in binding buffer to cover the range 10^-6-10^-12 M. The binding buffer used was 50 mM HEPES, pH 7.2 containing 1 mM CaCl_2, 5 mM MgCl_2, 0.15 M NaCl and 0.5% BSA. Wheatgerm SPA beads (Amersham) were solubilised in PBS to 50 mg/ml, and diluted in the binding buffer to a 10 mg/ml, and the final concentration in the assay was 0.25 mg/well. Membranes prepared from CHO cells expressing CCR1 or CCR5 were stored at −80° C. and diluted in the binding buffer to a 80 μg/ml. Equal volumes of membrane and beads stocks were mixed before performing the assay to reduce background. […] The plates were incubated at room temperature with agitation for 4 hours. Radioactivity was measured and data analysed as described for the heparin-binding assay.
MIP-1α for binding to recombinant CCR1 and CCR5 in membranes prepared from CHO stable transfectants. There was no significant difference in any of the single mutations on both receptors (results not shown).

Row | fold reduction in affinity against WT RANTES | fold loss of affinity against WT RANTES | Binder
1 | 100 fold |  | triple 40's RANTES mutant (R44A-K45A-R47A) (ligand, E. coli protein, leader cleaved; also called R44A-K45A-R47A RANTES; triple 40's mutant) SPYSSDTTPCCFAYIARPLPRAHIKEYFYTSGKCSNPAVVFVTAANAQVCANPEKKWVREYINSLEMS
2 |  | 3 fold | triple 50's RANTES mutant (K55A-K56A-R59A) (ligand, E. coli protein, leader cleaved; also called triple 50's mutant; 50's mutant) SPYSSDTTPCCFAYIARPLPRAHIKEYFYTSGKCSNPAVVFVTRKNRQVCANPEAAWVAEYINSLEMS
